Laboratory results published in paper PMC3177201.

Tests used:
Prp24 oRRM4 [1] = biological target: T1, Prp24 oRRM4 (Saccharomyces cerevisiae, UniProt P49960 292-400); experiment: fluorescence anisotropy
T1 sequence: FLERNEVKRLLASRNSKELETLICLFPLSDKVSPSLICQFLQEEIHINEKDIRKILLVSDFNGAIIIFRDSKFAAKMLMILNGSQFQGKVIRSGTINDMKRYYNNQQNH

Prp24 oRRM4 [2] = biological target: T1, Prp24 oRRM4; experiment: fluorescence anisotropy; remark: listed apart in the source

Binder: AGAGAUGAUCAGCAGUUCCCCUGCAUAAGGAUGAACCGUU (structured_RNA) [U6 nt 49-88, 5'-Cy5]
- Kd (Prp24 oRRM4 [1]): 3.1 µM

B1: U2 nt 1-51, 5'-FITC (ssRNA)
RNA: ACGAAUCUCUUUGCCUUUUGGCUUAGAUCAAGUGUAGUAUCUGUUCUUUUC
- binding result (Prp24 oRRM4 [2]): binds
